The values that follow come from US20120164142A1.

Experiment in all cases: cell-based or functional assay
Assay [1] concerns the target T1, purified insulin degrading enzyme (IDE) (UniProt P14735).
T1 sequence (looked up): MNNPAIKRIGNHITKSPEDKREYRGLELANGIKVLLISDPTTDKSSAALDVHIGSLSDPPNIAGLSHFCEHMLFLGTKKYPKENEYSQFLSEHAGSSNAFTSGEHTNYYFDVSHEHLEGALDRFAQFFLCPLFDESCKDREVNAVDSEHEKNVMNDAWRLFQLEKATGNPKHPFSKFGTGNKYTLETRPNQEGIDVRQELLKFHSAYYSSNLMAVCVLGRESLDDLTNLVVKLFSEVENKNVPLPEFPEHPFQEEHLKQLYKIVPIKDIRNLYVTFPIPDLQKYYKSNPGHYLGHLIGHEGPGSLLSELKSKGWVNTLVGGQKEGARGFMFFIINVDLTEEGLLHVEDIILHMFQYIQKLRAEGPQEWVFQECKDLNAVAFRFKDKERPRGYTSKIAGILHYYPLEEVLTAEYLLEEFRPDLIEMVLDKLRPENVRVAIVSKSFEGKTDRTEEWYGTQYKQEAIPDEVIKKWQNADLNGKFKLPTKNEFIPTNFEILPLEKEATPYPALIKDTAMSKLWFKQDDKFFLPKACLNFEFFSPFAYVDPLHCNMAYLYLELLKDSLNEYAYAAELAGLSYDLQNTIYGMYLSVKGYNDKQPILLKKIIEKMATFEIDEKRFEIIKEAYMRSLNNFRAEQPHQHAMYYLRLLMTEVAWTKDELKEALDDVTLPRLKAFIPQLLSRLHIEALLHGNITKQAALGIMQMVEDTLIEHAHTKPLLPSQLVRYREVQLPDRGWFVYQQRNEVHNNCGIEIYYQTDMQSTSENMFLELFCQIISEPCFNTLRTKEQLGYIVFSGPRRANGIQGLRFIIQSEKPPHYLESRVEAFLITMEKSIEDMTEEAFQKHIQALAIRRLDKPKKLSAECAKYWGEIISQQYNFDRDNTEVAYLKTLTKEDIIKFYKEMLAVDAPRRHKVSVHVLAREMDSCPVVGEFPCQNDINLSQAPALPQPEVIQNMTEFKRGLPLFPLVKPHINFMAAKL

Assay [2] has as its target human natriuretic peptide receptor B (NPR-B) (human) (UniProt P20594).
For assay [3], the target named is purified neutral endopeptidase (NEP) (UniProt P08473).
Sequence of purified neutral endopeptidase (NEP) (P08473 52-750 limits assumed): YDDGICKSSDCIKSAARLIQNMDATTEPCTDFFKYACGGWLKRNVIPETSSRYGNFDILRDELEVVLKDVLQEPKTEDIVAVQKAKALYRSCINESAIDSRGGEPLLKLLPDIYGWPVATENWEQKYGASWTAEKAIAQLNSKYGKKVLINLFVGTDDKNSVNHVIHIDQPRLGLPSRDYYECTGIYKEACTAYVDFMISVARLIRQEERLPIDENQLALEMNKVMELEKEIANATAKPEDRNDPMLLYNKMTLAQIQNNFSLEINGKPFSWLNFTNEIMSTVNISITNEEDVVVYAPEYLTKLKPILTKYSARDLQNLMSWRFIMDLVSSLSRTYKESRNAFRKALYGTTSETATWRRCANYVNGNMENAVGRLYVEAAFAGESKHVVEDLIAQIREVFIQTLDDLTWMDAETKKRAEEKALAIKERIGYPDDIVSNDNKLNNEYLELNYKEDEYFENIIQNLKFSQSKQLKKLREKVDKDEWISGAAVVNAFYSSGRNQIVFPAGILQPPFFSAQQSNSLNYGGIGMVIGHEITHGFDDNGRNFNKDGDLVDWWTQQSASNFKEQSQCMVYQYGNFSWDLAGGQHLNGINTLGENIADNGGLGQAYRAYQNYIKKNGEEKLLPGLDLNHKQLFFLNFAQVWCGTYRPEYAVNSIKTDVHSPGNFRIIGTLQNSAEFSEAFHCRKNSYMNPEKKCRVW

Sequence of human natriuretic peptide receptor B (NPR-B) (human) (P20594 23-1047): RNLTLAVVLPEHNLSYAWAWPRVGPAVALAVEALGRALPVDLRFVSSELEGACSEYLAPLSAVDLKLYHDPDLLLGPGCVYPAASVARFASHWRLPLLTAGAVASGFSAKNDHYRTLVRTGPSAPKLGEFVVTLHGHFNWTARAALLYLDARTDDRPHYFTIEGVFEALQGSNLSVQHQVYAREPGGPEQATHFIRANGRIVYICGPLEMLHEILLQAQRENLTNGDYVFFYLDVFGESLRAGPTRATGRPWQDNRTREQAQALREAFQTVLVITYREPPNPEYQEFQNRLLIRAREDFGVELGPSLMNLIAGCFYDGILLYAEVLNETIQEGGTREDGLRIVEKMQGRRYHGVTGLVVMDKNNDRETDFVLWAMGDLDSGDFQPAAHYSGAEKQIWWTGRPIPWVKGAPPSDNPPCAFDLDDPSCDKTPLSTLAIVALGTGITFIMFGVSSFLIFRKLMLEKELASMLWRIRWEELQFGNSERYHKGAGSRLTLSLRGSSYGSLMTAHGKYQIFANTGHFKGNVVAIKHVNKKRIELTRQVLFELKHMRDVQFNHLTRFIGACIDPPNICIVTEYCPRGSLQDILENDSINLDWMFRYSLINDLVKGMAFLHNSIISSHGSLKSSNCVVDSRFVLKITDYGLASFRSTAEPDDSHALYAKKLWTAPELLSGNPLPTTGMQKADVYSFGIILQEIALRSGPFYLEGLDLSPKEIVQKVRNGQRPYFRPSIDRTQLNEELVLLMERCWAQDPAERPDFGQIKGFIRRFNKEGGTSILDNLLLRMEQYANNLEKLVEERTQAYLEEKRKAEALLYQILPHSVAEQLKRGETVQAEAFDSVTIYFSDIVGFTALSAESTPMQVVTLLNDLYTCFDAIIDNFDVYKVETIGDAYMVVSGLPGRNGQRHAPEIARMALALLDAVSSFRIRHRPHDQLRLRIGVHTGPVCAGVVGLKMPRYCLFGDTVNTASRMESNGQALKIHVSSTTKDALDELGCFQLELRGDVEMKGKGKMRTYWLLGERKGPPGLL

In assay [1], GLSKGCFGLKLDRIGSMSGLGC [human CNP22] registered a reduction of ability to generate cGMP (NPRB cells) after 30 min with purified IDE of 64% and a reduction of ability to generate cGMP (NPRB cells) after 120 min with purified IDE of 99%. In assay [2], the % Efficacy was found to be 100%; the EC50 (nM), NPR-B whole cell cGMP assay amounted to 14.7 nM; the EC50 Ratio versus CNP22 was determined as 1; the EC50 on NPR-B (nM), whole cell cGMP assay worked out at 4.87 nM. Further, in assay [2], the Rescue Ratio Average came out at 1 and the Rescue Ratio versus CNP22 stood at 1. Moreover, in assay [3], the % of control after 240 min (intact peptide by RP-HPLC after incubation with NEP) turned out to be 0%, the reduction of ability to generate cGMP (NPRB cells) after 30 min with purified NEP is 50% and the reduction of ability to generate cGMP (NPRB cells) after 120 min with purified NEP amounted to 87%.
